This note sets out measurements from patent US20250250312A1, “BIFUNCTIONAL PEPTIDE WITH MU[…] VIRUS BINDING PROPERTIES” (priority 2022, published 2025).

B1: p6(K)8,18(D)12,22 (peptide)
peptide: EEQAKTFKDKFDHEAEDKFYQDSGLGKGDFR
modifications: not checked
B2: p4C10 (peptide)
peptide: EEQAKTFLDCFNHEAEDLFYQSS
modifications: not checked
B3: p4C11 (peptide)
peptide: EEQAKTFLDKCNHEAEDLFYQSS
modifications: not checked
B4: p4C18, 22 (peptide)
peptide: EEQAKTFLDKFNHEAEDCFYQCS
modifications: not checked
B5: p4C8, 12 (peptide)
peptide: EEQAKTFCDKFCHEAEDLFYQSS
modifications: not checked
B6: p4C12 (peptide)
peptide: EEQAKTFLDKFCHEAEDLFYQSS
modifications: not checked
B7: p4C11, 15 (peptide)
peptide: EEQAKTFLDKCNHECEDLFYQSS
modifications: not checked
B8: p4C4 (peptide)
peptide: EEQCKTFLDKFNHEAEDLFYQSS
modifications: not checked
B9: p4C9 (peptide)
peptide: EEQAKTFLCKFNHEAEDLFYQSS
modifications: not checked
B10: p4C2 (peptide)
peptide: ECQAKTFLDKFNHEAEDLFYQSS
modifications: not checked
B11: p4C15, 19 (peptide)
peptide: EEQAKTFLDKFNHECEDLCYQSS
modifications: not checked
B12: p4C4, 8 (peptide)
peptide: EEQCKTFCDKFNHEAEDLFYQSS
modifications: not checked
B13: p4C13 (peptide)
peptide: EEQAKTFLDKFNCEAEDLFYQSS
modifications: not checked
B14: p4C4, 8, 18, 22 (peptide)
peptide: EEQCKTFCDKFNHEAEDCFYQCS
modifications: not checked
B15: p4C3 (peptide)
peptide: EECAKTFLDKFNHEAEDLFYQSS
modifications: not checked
B16: p4C7 (peptide)
peptide: EEQAKTCLDKFNHEAEDLFYQSS
modifications: not checked
B17: p4C5 (peptide)
peptide: EEQACTFLDKFNHEAEDLFYQSS
modifications: not checked
B18: p4C8 (peptide)
peptide: EEQAKTFCDKFNHEAEDLFYQSS
modifications: not checked
B19: p6 peptide (peptide)
peptide: EEQAKTFLDKFNHEAEDLFYQSSGLGKGDFR
modifications: not checked
B20: p6-dis (peptide)
peptide: EEQAKTFLDKFNHEAEDLFYQSCGLGKGDFRC
modifications: not checked
B21: p6-rigid (peptide)
peptide: EAAAKEEQAKTFLDKFNHEAEDLFYQSSGLGKGDFR
modifications: not checked
B22: p6-rigid-dis (peptide)
peptide: EAAAKEEQAKTFLDKFNHEAEDLFYQSCGLGKGDFRC
modifications: not checked

One assay concerns the target T1, receptor binding domain (RBD) of SARS-CoV-2 wildtype (2019-nCoV) (SARS-CoV-2), P0DTC2.
The molecule B1 returned a Kd of 10000 nM.

The target in the next assay is T1, receptor binding domain (RBD) of …. This is another data set of the same source.
Regarding B2, the Kd came to 331 nM.

For B3, the Kd was determined as 12 nM.

B4 returned a Kd of 218 nM.

B5 registered a Kd of 47 nM.

For the molecule B6, the Kd was determined as 2050 nM.

The molecule B7 had a Kd of 68 nM.

B8 returned a Kd of 1300 nM.

In the case of B9, the Kd came to 3230 nM.

As to B10, the Kd was determined as 34 nM.

As to B11, the Kd stood at 238 nM.

Turning to B12, the Kd is 59 nM.

Molecule B13 displayed a Kd of 28 nM.

In the case of B14, the Kd stood at 400 nM.

Molecule B15 showed a Kd of 42 nM.

The molecule B16 displayed a Kd of 1940 nM.

The molecule B17 showed a Kd of 2140 nM. This Kd and that of the molecule before are within 1.5-fold of each other.

In turn, B18 had a Kd of 281 nM.

Another assay has as its target receptor binding domain (RBD) of SARS-CoV-2 alpha variant (B.1.1.7) (SARS-CoV-2), P0DTC2.
Regarding B19, the Kd is 320 nM.

A further assay deals with receptor binding domain (RBD) of SARS-CoV-2 delta variant (B.1.617.2) (SARS-CoV-2), P0DTC2.
Regarding B19, the equilibrium dissociation constant (Kd) was determined as 190 nM.

The next assay has as its target T1, receptor binding domain (RBD) of …. The source holds these as a separate data set.
B20 came in with a Kd of 2600 nM.

B21 displayed a Kd of 4530 nM.

B22 came in with a Kd of 5140 nM.

One may read the Kd as the constant that tells how readily two partners part at equilibrium.
